The values below come from patent US11965032.

As a reminder, the Kd is the concentration at which binding is half-saturated. A higher Kd goes with a looser complex. A word on the EC50: it is the concentration needed to bring the measured effect to its halfway point. Low readings indicate an effect from little substance, high ones a need for much substance.

The target in assay [1] is FcγIIIA Receptor on the effector cells (human) (UniProt P08637). In words: cell-based or functional assay.
For assay [2], the target named is C1q in the complement system (rabbit serum as the source of complement) (rabbit). In words: cell-based or functional assay.
Assay [3] addresses FcRn (human Fc receptor panel, Octet) (human) (UniProt P55899). In words: BLI (Octet HTX), receptor on anti-penta-His biosensor, 1:1 model.
The target in assay [4] is FcγRIIB/C (human Fc receptor panel, Octet) (human) (UniProt P31994). The description is as above.
Chain of FcγRIIB/C (human Fc receptor panel, Octet) (human) (P31994 46-217 limits assumed): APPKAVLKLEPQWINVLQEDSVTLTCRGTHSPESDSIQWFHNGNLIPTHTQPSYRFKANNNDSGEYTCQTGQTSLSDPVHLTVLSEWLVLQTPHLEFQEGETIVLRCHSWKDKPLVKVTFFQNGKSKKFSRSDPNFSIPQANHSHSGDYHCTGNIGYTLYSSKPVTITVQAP
The target in assay [5] is FcγRIIIA F158 (human Fc receptor panel, Octet) (human) (UniProt P08637). The description is as above.
Chain of FcγRIIIA F158 (human Fc receptor panel, Octet) (human) (P08637 17-208 limits assumed): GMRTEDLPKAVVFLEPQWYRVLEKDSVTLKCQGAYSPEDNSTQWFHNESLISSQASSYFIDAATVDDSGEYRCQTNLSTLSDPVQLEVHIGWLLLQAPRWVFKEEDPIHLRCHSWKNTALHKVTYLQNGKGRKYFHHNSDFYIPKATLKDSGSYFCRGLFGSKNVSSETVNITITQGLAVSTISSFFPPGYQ
Assay [6] concerns the target FcγRIIIA V158 (human Fc receptor panel, Octet) (human) (UniProt P08637). The assay is described as above.
Assay [7] deals with FcγRI (human Fc receptor panel, Octet) (human) (UniProt P12314). The description is as above.
Chain of FcγRI (human Fc receptor panel, Octet) (human) (P12314 16-288 limits assumed): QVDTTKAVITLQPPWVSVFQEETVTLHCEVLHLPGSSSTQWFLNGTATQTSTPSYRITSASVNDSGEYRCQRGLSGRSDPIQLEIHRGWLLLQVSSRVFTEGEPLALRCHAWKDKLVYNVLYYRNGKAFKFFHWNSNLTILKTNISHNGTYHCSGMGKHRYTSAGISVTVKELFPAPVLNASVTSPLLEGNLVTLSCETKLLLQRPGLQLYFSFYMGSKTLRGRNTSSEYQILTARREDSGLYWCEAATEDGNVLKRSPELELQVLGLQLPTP
Assay [8] has as its target FcγRIIIB (human Fc receptor panel, Octet) (human) (UniProt O75015). Described as above.
The target in assay [9] is FcγRIIA (human Fc receptor panel, Octet) (human) (UniProt P12318). The assay is described as above.
Chain of FcγRIIA (human Fc receptor panel, Octet) (human) (P12318 36-218 limits assumed): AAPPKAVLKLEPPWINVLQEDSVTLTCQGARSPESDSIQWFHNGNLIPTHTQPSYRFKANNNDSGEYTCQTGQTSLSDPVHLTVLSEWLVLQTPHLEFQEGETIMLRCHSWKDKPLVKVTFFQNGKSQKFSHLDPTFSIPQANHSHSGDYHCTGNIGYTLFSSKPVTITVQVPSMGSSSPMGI
The target in assay [10] is FcγRIIIa 158F receptor (SPR assay) (UniProt P08637). In words: SPR, receptor amine-coupled to the chip, antibody injected, steady state affinity. (SPR reads the build-up and loss of mass on a sensor chip optically.)
Chain of FcγRIIIa 158F receptor (SPR assay) (P08637 17-208 limits assumed): as the sequence (P08637 17-208 limits assumed) above
Assay [11] addresses CD20 on Jeko-1, Raji and Daudi cells (human) (UniProt P11836). In words: cell-based MSD electrochemiluminescence binding assay on CD20 expressing Jeko-1 cells.
Assay [12] concerns the target FcγRIIIa 158V receptor (SPR assay) (UniProt P08637). In words: SPR, receptor amine-coupled to the chip, antibody injected, 1:1 kinetics.
The target is the same in assay [13]. Description: SPR, relative to the TG-1101 reference standard.
Assay [14] concerns the target FcγRIIIa 158F receptor (SPR assay) (UniProt P08637). Description: SPR, relative to the TG-1101 reference standard.
Assay [15] addresses HRP conjugated human C1q (human) (UniProt P02745). Description: ELISA, antibody coated on the plate, HRP conjugated human C1q.

Chain of FcγRIIIa 158V receptor (SPR assay) (P08637 17-208 F176V limits assumed): as the sequence (P08637 17-208 limits assumed) above, with F160V counted along it
Chain of FcγRIIIA V158 (human Fc receptor panel, Octet) (human) (P08637 17-208 F176V limits assumed): as the sequence (P08637 17-208 limits assumed) above, with F160V counted along it
Chain of FcγRIIIB (human Fc receptor panel, Octet) (human) (O75015 17-200 limits assumed): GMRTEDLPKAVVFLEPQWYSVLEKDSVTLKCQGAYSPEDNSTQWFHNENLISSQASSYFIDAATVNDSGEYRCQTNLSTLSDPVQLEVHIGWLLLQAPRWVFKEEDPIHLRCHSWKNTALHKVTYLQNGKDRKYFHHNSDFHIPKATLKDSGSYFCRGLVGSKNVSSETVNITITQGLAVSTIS
Chain of FcγIIIA Receptor on the effector cells (human) (P08637 17-254): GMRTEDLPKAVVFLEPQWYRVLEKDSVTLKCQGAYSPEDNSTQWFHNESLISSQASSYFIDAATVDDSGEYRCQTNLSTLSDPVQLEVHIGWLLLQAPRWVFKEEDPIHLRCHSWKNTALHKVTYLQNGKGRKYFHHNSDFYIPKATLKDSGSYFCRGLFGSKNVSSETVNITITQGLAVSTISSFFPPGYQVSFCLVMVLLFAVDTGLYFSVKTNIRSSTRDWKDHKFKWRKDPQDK
Chain of FcRn (human Fc receptor panel, Octet) (human) (P55899 24-297 limits assumed, chain 1 of 2): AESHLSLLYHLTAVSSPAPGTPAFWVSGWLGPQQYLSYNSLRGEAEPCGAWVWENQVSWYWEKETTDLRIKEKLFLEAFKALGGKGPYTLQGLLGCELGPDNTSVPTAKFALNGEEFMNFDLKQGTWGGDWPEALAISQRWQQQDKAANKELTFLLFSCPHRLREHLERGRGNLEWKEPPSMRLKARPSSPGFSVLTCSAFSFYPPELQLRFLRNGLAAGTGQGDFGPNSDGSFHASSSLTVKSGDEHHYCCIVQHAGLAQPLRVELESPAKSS
Chain of FcRn (human Fc receptor panel, Octet) (human) (P61769 21-119 limits assumed, chain 2 of 2, further chain): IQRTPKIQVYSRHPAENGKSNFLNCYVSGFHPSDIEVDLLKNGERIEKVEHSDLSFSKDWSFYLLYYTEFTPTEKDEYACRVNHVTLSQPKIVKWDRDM
Chain of CD20 on Jeko-1, Raji and Daudi cells (human) (P11836 whole entry): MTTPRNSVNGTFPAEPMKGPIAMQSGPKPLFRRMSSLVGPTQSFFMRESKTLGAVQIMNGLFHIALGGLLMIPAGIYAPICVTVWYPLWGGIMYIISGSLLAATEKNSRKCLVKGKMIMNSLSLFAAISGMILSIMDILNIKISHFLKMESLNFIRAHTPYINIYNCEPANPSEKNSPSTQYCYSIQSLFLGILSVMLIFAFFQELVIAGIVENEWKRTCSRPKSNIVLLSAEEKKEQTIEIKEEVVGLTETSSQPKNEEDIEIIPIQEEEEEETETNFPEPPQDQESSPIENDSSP
Chain of HRP conjugated human C1q (human) (P02745 23-245 limits assumed, chain 1 of 3): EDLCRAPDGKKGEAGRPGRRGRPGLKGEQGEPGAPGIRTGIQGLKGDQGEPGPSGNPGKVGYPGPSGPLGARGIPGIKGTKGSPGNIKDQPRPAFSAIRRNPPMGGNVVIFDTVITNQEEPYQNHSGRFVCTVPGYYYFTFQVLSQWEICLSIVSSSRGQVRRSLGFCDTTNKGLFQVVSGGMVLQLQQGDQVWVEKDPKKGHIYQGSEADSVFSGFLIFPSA
Chain of HRP conjugated human C1q (human) (P02746 28-253 limits assumed, chain 2 of 3, further chain): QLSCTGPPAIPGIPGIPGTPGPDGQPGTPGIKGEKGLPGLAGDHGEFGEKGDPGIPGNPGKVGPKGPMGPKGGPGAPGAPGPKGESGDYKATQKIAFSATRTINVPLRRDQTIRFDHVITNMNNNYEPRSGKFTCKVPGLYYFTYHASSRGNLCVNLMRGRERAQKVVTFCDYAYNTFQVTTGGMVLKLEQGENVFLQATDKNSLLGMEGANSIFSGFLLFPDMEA
Chain of HRP conjugated human C1q (human) (P02747 29-245 limits assumed, chain 3 of 3, further chain): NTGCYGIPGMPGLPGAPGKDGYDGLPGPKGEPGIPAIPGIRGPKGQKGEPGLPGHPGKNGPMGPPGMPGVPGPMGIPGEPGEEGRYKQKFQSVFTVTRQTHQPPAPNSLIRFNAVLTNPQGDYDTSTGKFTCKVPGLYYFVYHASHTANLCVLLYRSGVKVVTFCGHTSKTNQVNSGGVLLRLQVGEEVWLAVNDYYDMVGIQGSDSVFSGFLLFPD

In turn, ARZERRA (ofatumumab) (antibody) registered an ADCC EC50 (Raji target cells, KILR CD16a effector cells) in assay [1] of 0.0741 ng/mL. The EC50 of ADCC assay Using Primary NK Cells (Raji target cells, LDH release) in assay [1] was 500 µg/mL. This substance also came in with a CDC EC50 (Jeko-1 cells, rabbit serum complement) in [2] of 0.353 µg/mL. For the same substance, the Kd is 0.064 µM in assay [3]; 0.156 µM in [4]; 0.482 µM in assay [5]; 0.207 µM in assay [6]; 0.021 µM in [7]; 0.307 µM in assay [8]. For the same substance, the values for the Kd in assay [9], in assay [10] and in assay [12] were 0.232 µM, 14.8 µM and 1.64 µM, respectively. The same substance gave an EC50 in [11] of 0.092 µg/mL.

Turning to GAZYVA (obinutuzumab) (antibody), the ADCC EC50 (Raji target cells, KILR CD16a effector cells) in [1] is 0.00658 ng/mL. For the same substance, the EC50 of ADCC assay Using Primary NK Cells (Raji target cells, LDH release) in assay [1] was 19 µg/mL. Besides, the Kd in assay [3] is 0.039 µM; in assay [4] it was 0.225 µM; in assay [5], 0.098 µM; in assay [6] it was 0.04 µM; in assay [7], 0.026 µM; in assay [8] it was 0.277 µM. The Kd in assay [9] was 0.281 µM; in assay [10] it was 1.79 µM; in assay [12] it was 0.242 µM. Further, the figures for the Relative Affinity (%) in assay [13] and in [14] were 27.6% and 37.6%, respectively. The Relative Binding (%) was determined as 19.6% in assay [13] and 33% in [14]. The substance also had an EC50 in assay [11] of 0.053 µg/mL.

Turning to OCREVUS (ocrelizumab) (antibody), in [15], the EC50 came to 2.9 µg/mL. In assay [1], this substance came in with an ADCC EC50 (Raji target cells, KILR CD16a effector cells) of 0.0608 ng/mL. The substance also yielded a CDC EC50 (Jeko-1 cells, rabbit serum complement) in assay [2] of 1.21 µg/mL. Moreover, the Kd in assay [3] stood at 0.062 µM; in [4], 0.362 µM; in assay [5] it was 0.592 µM; in [6], 0.138 µM; in [7], 0.019 µM; in [8] it was 2.09 µM. Besides, the Kd stood at 0.624 µM in assay [9], 6.76 µM in assay [10] and 1.03 µM in assay [12].

In turn, RITUXAN (rituximab) (antibody) displayed an ADCC EC50 (Raji target cells, KILR CD16a effector cells) in assay [1] of 5.46 ng/mL. Besides, in assay [1], the EC50 of ADCC assay Using Primary NK Cells (Raji target cells, LDH release) was determined as 1390 µg/mL. In addition, the CDC EC50 (Jeko-1 cells, rabbit serum complement) in [2] worked out at 0.245 µg/mL. Also, the Kd stood at 0.043 µM in assay [3]; 0.211 µM in assay [4]; 0.015 µM in assay [7]; 0.309 µM in [8]; 0.253 µM in assay [9]; 6.96 µM in assay [10]. In assay [12], the dissociation constant (Kd) stood at 1.2 µM. Further, the EC50 in [11] stood at 0.133 µg/mL.
